Assay results: paper PMC4650709

Target: Ara h 1 (peanut)
Experiment: SEC; purified Ara h 1; conditions not given

Substance: Ara h 1 (natural protein)
- stoichiometry N: 3
